From article PMC4545750

Molecular target: Krimper Tudor2 domain (562-746) (D. melanogaster) (UniProt A1ZAC4)
Test: ITC

Sequence of UniProt A1ZAC4 (A1ZAC4 562-746): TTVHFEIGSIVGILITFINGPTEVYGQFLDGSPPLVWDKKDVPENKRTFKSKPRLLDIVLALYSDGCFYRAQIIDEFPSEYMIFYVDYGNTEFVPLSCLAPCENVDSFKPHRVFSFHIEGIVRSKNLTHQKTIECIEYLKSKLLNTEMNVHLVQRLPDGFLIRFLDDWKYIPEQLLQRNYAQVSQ

Row | Kd [µM] | Substance
1 | 4.1 | Aubergine peptide (residues 6 to 18) with symmetrically di-methylated arginine 15 (from UniProt O76922 6-18)
2 | 16.3 | Aubergine peptide (residues 6 to 18) with symmetrically di-methylated arginine 11 (from UniProt O76922 6-18)
